Experimental data published in the nanobody polyreactivity screen of Harvey et al. (2022).

Experiment: yeast display, Sf9 membrane polyspecificity reagent, FACS + sequencing; frameworks hold sequencing errors
Procedure, shortened: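 Synthetic nanobody libraries on Saccharomyces cerevisiae BJ5465 were galactose-induced for 36–48 hours, stained 1 hour at 4 °C with 10% biotinylated, detergent-solubilized Sf9 membrane reagent and enriched on streptavidin microbeads. FACS then separated cells into low and high (top ~1%) gates by anti-HA (expression) and streptavidin (reagent binding) fluorescence. Genes were colony-PCR amplified, MiSeq 2 × 250 sequenced and CDR-length filtered. A clone's polyreactivity label is that of its gate of origin.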

Sequence | polyreactivity (PSR sort gate)
QVQLVESGGGLVQAGCSHRLSCSSTGRTFYIYDMGRYRQAPGKERELVAVISWSGGDTNYADSVKGRFRISRDNAKNTVYLQMNSLKPEDTAVYYCAATRRDRRKSFTYRYDYWGQGTQVTVSS | high polyreactivity
QVQLVESGGGLVQAGCSLRISCAASGFTFGKYAMGLYRQAPGNERELVAAITQCGGSTYYADSVKGRFTISRDNAKNTVYLQMNSLKPEYTAVYYCAADRRRQYRPGGYWGQGTQVTVSS | high polyreactivity
QVQLVESGGGLVQAGCSLRISCAASGSIYATKAIGWYRQAPGKERELVASISSGGCSTYYADSVKARFTISRDNAKNTVYLQLNSLKPEDTAVYYCARRIGHGSRPYWLETWRYPYDYWGQGTQVTVSS | low polyreactivity
QVQLVESGGGLVQAGCSLRLICAASGFIFPTNAMGWYRQAPGKERELVARISYGGGDTHYADSVKGRFTISRANAKTTVYLQMNSLKPEDTAVHYCAVKDGQDDYWGQGTQVTVSS | low polyreactivity
QVQLVESGGGLVQAGCSLRLICAASGSTFDPNAMGWYRQSPGKERQLVAVIDSGDGTTYYADSVKGRFTISRDNAKNTVYLQMNSLKPEDTAVYYCAVDESTSYYDDHEDYWGQGTQVTVSS | low polyreactivity
QVQLVESGGGLVQAGCSLRLSCAASGFIFATNTMGWYRHSPGKERELVAASSTYYAESVKGRFTISRDNAKNTVYLQMNSLKQEDTAVYYCNAYRDSYIGFVDWAGEYWGQGTQVTVSS | low polyreactivity
QVQLVESGGGLVQAGCSLRLSCAASGFIFVFNAMGWYRQAPGKERELVAAINGGDITNYADSVKGRFTISRDNAKNTVYLQMNSMKPEDTAVYYCNADGYYFLISNANTLGYWGQGTQVNVSS | low polyreactivity
QVQLVESGGGLVQAGCSLRLSCAASGFILTYYLMGWYRQAPGKERELVAAILSGGNTYYADSVKGRFTISRDNAQNTVYLQMNCLKPEDTAVYYFNARPRWSYGLDYWGQGTQVTVSS | high polyreactivity
QVQLVESGGGLVQAGCSLRLSCAASGFTFDQYAMGWYRQAPGKEREFVAGNSYGRGRTYYADSVKGRFTISRDNAKNNFYLQMNSVKPEVTAVYYCAADGVYRYNYPYLYTYDYWGQGTQVTVSS | low polyreactivity
QVQLVESGGGLVQAGCSLRLSCAASGLIFGRNVMGWYRQAPGKERELVAAISWSGGRTYYADSVKGRFTISRDNAKNTVYLQMNSLKPEDTAVYYCATDRSTRTYRSPYDYWGQGTQVTVSS | high polyreactivity
QVQLVESGGGLVQAGCSLRLSCAASGRIFDFYAMGWYRHAPGKERELVAAISWDGSDTYYADSVKGRFTISRDNAKNTVYLQMNSLKPEDTAVYYCAADYYSPSGHEYNYWGQGTQVTVSS | high polyreactivity
QVQLVESGGGLVQAGCSLRLSCAASGRIFGQYAMGWYRQAPGKEREFVAGISTTGGSTYYADSVKGRFTISRDNAKNTVYLQMNSLKPEDTAVYYFAVRINWSRWYHYYTYNYWGQGTQVTVSS | high polyreactivity
QVQLVESGGGLVQAGCSLRLSCAASGRIFSFYAMGWYRQAPGKERELVITSGGDTNYADSVKGRFTISRDNAKNTVYLQLNSLKPEDTAVYYCNAEGDRSQPYNFDYWGQGTQVTVSS | low polyreactivity
QVQLVESGGGLVQAGCSLRLSCAASGRIFSFYVMGWYRQAPGKERELVAAISLSGGSTYYADSVKGRFTISRDNAKNTVYLQMNSLKPEDTAVYYCNAVLYARLRDRWARYDYWGQGTQVTVSS | high polyreactivity
QVQLVESGGGLVQAGCSLRLSCAASGRIFSYNAMGWYRPAPAKERELVAAISSDGSTYYADSVKGRFTISRDNAKNTVYLQMNSLKPEDTAVYYCAAYPRVNGNILSTGDYWGQGTQVTVSS | low polyreactivity
QVQLVESGGGLVQAGCSLRLSCAASGRIFTSYAMGWYRQAPGKERELVAAISRSGARTYYADTVKGRFTISRDNAKNTVYLQMNSLKPEDTAVYDCAAVTVAGYDYWGQGTQVTVSS | high polyreactivity
QVQLVESGGGLVQAGCSLRLSCAASGRIFVEYAMGWYRQAPGKVTELVAAINSGGSTNYADSVKGRFTISRDNAKNTVYLQMNSLKPEDTAVYYCNIDTLVYGYVQDYEYWGQGSQVTVSS | low polyreactivity
QVQLVESGGGLVQAGCSLRLSCAASGRILFGYAMGWYRQAPGKERELVADITSTGSTNYADSVKGRFTISRDNAKNTVYLQMNSLKPEDTAVYYCNARRESYYQRYRVDYWGQGTQVTVSS | low polyreactivity
QVQLVESGGGLVQAGCSLRLSCAASGRNFVHYAMGWYRQAPGKERDLVAAISWSGGNTYYADSVKGRFTISRDNAKNTVYLQMNSLKPEDTAVYYCARAPYYVASGHRRVLRPTYEYWGQGTQVTVSS | low polyreactivity
QVQLVESGGGLVQAGCSLRLSCAASGRTFARYVMGWYRQAPGKEREFVATISTSGTSTYYADSVKGRFTISRDNAKNTVYLQMNSLKPAETAVYYCAARRTTRGYDYWGQGTQVTVSS | high polyreactivity

Sequence | polyreactivity (PSR sort gate)
QVQLVESGGGLVQAGCSLRLSCAASGRTFITNAMGWYRQAPGKVRELVAAISSGTGGRTYYADSVKGRFTISRDKAKNTVYFQMNSRKPEDTAVYYCAARSTKYYPYGYWGQGTQVTVTS | high polyreactivity
QVQLVESGGGLVQAGCSLRLSCAASGRTFPPYAMGWYRQAPRKERELVAAISRRAGTTYYADSVKGRFTISRDNAKNTVYLQMNSLKPEDTAVYYCAALSESSSYGYWGQGTQVTVSS | low polyreactivity
QVQLVESGGGLVQAGCSLRLSCAASGRTFVQYFMGWYRQAPGKERELVAAITSSGGSTYADSVKGRFTISRDNAKNTVFLHMNSLKPEDTAVYYCAADYLDGVGDVEHDYWGQGTQVTVSS | low polyreactivity
QVQLVESGGGLVQAGCSLRLSCAASGRTFYRYTMGWYRQAPGKERELVAAISISGGSTYYSDSVKGRFTISRDNEKNTFYLQMNSLKPEDSAVYYCAATSWGTYYRRLYYWGQATQVTVSS | high polyreactivity
QVQLVESGGGLVQAGCSLRLSCAASGRTFYYAMGWYRQAPGKERYADSVKGRFTISRDNAKNTVYLQMNSLKPEDTAVYYCAAKVPEPTSLDQSDYWGQGTQVTVSS | low polyreactivity
QVQLVESGGGLVQAGCSLRLSCAASGSIFAVYAMGWYRQATGKERELVAAISWSVGSTYYADSVKGRFTISRDHAKNTVYFQMNSLKPEDTAVYYCAAELAYYLDYVEYFTEIDLEGYWGQGTQVTVSS | low polyreactivity
QVQLVESGGGLVQAGCSLRLSCAASGSIFESYAMGWSRQAPGNERELVAAITSSGDSTYYADSVKGRFTITRDNAKNTVYIQMNSLKPEDTAVYYCANRVPTYISTADWGSRYDYWGQGTQVTVSS | low polyreactivity
QVQLVESGGGLVQAGCSLRLSCAASGSIFPFNAMGWYRQAPGKERELVAAITRSGGSTYYADSVKGRFTISRDNAKNTVYLQMNSLKPEDTAVYYCATDPEWPLPAYYYWGQGTQVTVSS | low polyreactivity
QVQLVESGGGLVQAGCSLRLSCAASGSIRGYAMGWSRQAPGKERELVASITWSGGSTYYADSVKGRFTMSRDNAKYTVYLQMHSLNPEDTAVYYCAASPSPYASVIRPYDYWGQGTQVTVSS | low polyreactivity
QVQLVESGGGLVQAGCSLRLSCAASGSTFFYYAMGWYRQSPGKERELVARISGGGSTNYADSVKGRFTISRDNAKNTVYLQMNSLKPEDTAVYYCAADRYDYYRYSYGRYGYWGQGTQVTVSS | high polyreactivity
QVQLVESGGGLVQAGCSLRLSCAASGSTFRYYAMGWYRQAPGKERELVAAINRSGGSTYYADSVKGRFTISRDNAKNTVYLQMYSLKPEDTAVYYCAAPWARHYSNPDDYWGQGTQVTVSS | high polyreactivity
QVQLVESGGGLVQAGCSLRLSCASSGSIFGRYAMGWYRQAPGKERELVAAISRGGSTNYADSVKGRFTISRDNAKNTVYLQLNSLKPEDTAVYYCNRKPYYVSSTRYDYWGQGSQVTVSS | high polyreactivity
QVQLVESGGGLVQAGCSLRLSCGASGSTFIHYAMGWYRQAPGTERELVAAITWDGSSTYYADSVKGRFTISLDNAKNTVYLQMNSLKPEDTAVYDCATDYAGQYPVDGQAIHDYWGQGTQVTVSS | low polyreactivity
QVQLVESGGGLVQAGCSLRLSSAASGIIFSHNAMGWYRQAPGKERELVDDIDWSGGSTYYADSVKGRFTISRDNAKNTVYLQMNSLKPEDTAVYYCAAEYRDYVPVNDTGDYWGQGTQVTVSS | low polyreactivity
QVQLVESGGGLVQAGCSLRLSWAASGRIFRPNSMGWYRQAPGKERELVAAITSNGGRTYYADSVKGRFTISRDNAKNTVYLQMNSLKPEDTAVYYCAKRVWYYSHKYDYWGQGTQVTVSS | high polyreactivity
QVQLVESGGGLVQAGCSRRLSWAASGSTFPDYVMGWDRQAPGKERELVAAISSIGGSTYYADSVKGRFTISRDNAKNTVYLQMNSLKPEDSAVYYCAAENSYFYPFDYWGQGTQVTVSS | low polyreactivity
QVQLVESGGGLVQAGCSVRLSCAASGSFFVLNSMGWYRQAPGKERELVAAIDESGGGTYYADSVKGRFTISRDNAKNTVYLQMNSLKPEDTAVYYCAADTLAPRAYDYWGQGTQVTVSS | low polyreactivity
QVQLVESGGGLVQAGGCLRLSCAASGFIFDSNAMGWYRQAPGKERELVAAISRRGGSTYYADSVKGRFTISRDNAKNTVYVHMNSLKPEYTSVYYCNAEYGSHVKYGYWGQGTQVTVSS | high polyreactivity
QVQLVESGGGLVQAGGCLRLSCAASGFIFRRNALGWYSEAPGKERELVAAMGSRGTATDYADSVKGRFTISRDNAKKTVYLQMNRLNPEDTAVDYCAKSVVAWGPNFRPNHTRGYYWGQGTQATVSS | low polyreactivity
QVQLVESGGGLVQAGGCLRLSCAASGLIFIKYTMGWYRQAPGKERELVAVISGSGGSTYYADSVKGRFTISRDNAKNTVYLQMNSLKPEDTAVYYCAARSYALGYGGGYWGQGTQVTVSS | high polyreactivity
